The series has as its system Escherichia coli TOP10. In words: shrunken log2 fold change of peptide-encoding DNA abundance (4.5 h post-induction vs induction); higher = less antimicrobial activity (less host growth inhibition). The following applies: time post-induction: 4.5 h; library: site-saturation at positions 5, 18, 19, 20.
For the sequence RRIRLRPPRLPRPRPRPFTKPRP, the “shrunken log2 fold change” value is -0.00525.
For RRIRYRPPRLPRPRPRPHPTPRP, the “shrunken log2 fold change” value is -0.289.
The result for RRIRSRPPRLPRPRPRPLFSPRP reads -0.0902.
Regarding RRIRERPPRLPRPRPRPDEPPRP, the “shrunken log2 fold change” value is -0.0946.
In the case of RRIRIRPPRLPRPRPRPMNYPRP, the “shrunken log2 fold change” value was -0.0706.
The same measure for RRIRERPPRLPRPRPRPQYYPRP: -0.676.
The result for RRIRSRPPRLPRPRPRPRCCPRP reads -0.00537.
RRIRERPPRLPRPRPRPPGWPRP: the “shrunken log2 fold change” value turned out to be 0.467.
The same measure for RRIRKRPPRLPRPRPRPFMCPRP: 0.0653; for RRIRLRPPRLPRPRPRPFTFPRP: 0.0545.
The result for RRIRPRPPRLPRPRPRPHLMPRP reads -0.0526; that for RRIRPRPPRLPRPRPRPHPAPRP, 0.217; that for RRIRIRPPRLPRPRPRPGAEPRP, 0.0273.
The result for RRIRLRPPRLPRPRPRPKVQPRP reads 0.22; that for RRIRRRPPRLPRPRPRPFVSPRP, -0.0868.
In the case of RRIRQRPPRLPRPRPRPYNGPRP, the “shrunken log2 fold change” value was -0.631.
For RRIRPRPPRLPRPRPRPAPRPRP, the “shrunken log2 fold change” value came to 0.992.
The result for RRIRNRPPRLPRPRPRPYFMPRP reads -1.09; that for RRIRVRPPRLPRPRPRPRPIPRP, 0.611.
For the sequence RRIRNRPPRLPRPRPRPDVKPRP, the “shrunken log2 fold change” value was -0.412.
Take RRIRGRPPRLPRPRPRPHDYPRP: the “shrunken log2 fold change” value stood at 0.0282.
On to RRIRNRPPRLPRPRPRPFHCPRP, for which the “shrunken log2 fold change” value is -0.536.
The result for RRIRCRPPRLPRPRPRPPAYPRP reads 0.176.
As for RRIRYRPPRLPRPRPRPQFEPRP, the “shrunken log2 fold change” value is -0.106.
The result for RRIRVRPPRLPRPRPRPSPVPRP reads 0.216; that for RRIRIRPPRLPRPRPRPMYGPRP, -0.437.
Turning to RRIRIRPPRLPRPRPRPYRCPRP, the “shrunken log2 fold change” value was -0.0728.
RRIRQRPPRLPRPRPRPCCRPRP: the “shrunken log2 fold change” value was -0.0851.
The result for RRIRLRPPRLPRPRPRPATNPRP reads -0.253; that for RRIRMRPPRLPRPRPRPCALPRP, 0.738.
The same measure for RRIRKRPPRLPRPRPRPYNKPRP: -0.626.
In the case of RRIRMRPPRLPRPRPRPPIDPRP, the “shrunken log2 fold change” value amounted to 0.0677.
The same measure for RRIRARPPRLPRPRPRPHEEPRP: 0.793; for RRIRCRPPRLPRPRPRPWWRPRP: 0.157.
The same measure for RRIRHRPPRLPRPRPRPQYIPRP: -0.621; for RRIRIRPPRLPRPRPRPRHCPRP: 0.0849.
The same measure for RRIRARPPRLPRPRPRPSFCPRP: 0.167; for RRIRYRPPRLPRPRPRPGWDPRP: -0.0163; for RRIRERPPRLPRPRPRPIPMPRP: -0.136.
Regarding RRIRNRPPRLPRPRPRPRTQPRP, the “shrunken log2 fold change” value was 0.11.
For the sequence RRIRWRPPRLPRPRPRPNEFPRP, the “shrunken log2 fold change” value was -0.161.
The result for RRIRIRPPRLPRPRPRPAQLPRP reads -0.177; that for RRIRWRPPRLPRPRPRPTCMPRP, 0.553; that for RRIRGRPPRLPRPRPRPCQPPRP, -0.0639.
Regarding RRIRVRPPRLPRPRPRPTCFPRP, the “shrunken log2 fold change” value was -0.155.
The result for RRIRSRPPRLPRPRPRPVSCPRP reads -0.00594; that for RRIRPRPPRLPRPRPRPRYYPRP, -0.385; that for RRIRGRPPRLPRPRPRPEAAPRP, 3.27.
The result for RRIRFRPPRLPRPRPRPHIFPRP reads -0.021; that for RRIRARPPRLPRPRPRPLMDPRP, 0.634.
The same measure for RRIRARPPRLPRPRPRPLFWPRP: 0.678; for RRIRKRPPRLPRPRPRPFFQPRP: 0.346.
On to RRIRVRPPRLPRPRPRPTDQPRP, for which the “shrunken log2 fold change” value is -0.0162.
The same measure for RRIRMRPPRLPRPRPRPVQTPRP: 0.0257.
The same measure for RRIRLRPPRLPRPRPRPDCSPRP: 0.0574; for RRIRHRPPRLPRPRPRPQNEPRP: -0.133; for RRIRVRPPRLPRPRPRPMNAPRP: 0.154.
The result for RRIRHRPPRLPRPRPRPWIQPRP reads -0.0803; that for RRIRWRPPRLPRPRPRPMVWPRP, 0.025; that for RRIRARPPRLPRPRPRPADCPRP, 0.203.
In the case of RRIRQRPPRLPRPRPRPIPEPRP, the “shrunken log2 fold change” value turned out to be 0.0343.
For the sequence RRIRDRPPRLPRPRPRPILGPRP, the “shrunken log2 fold change” value is -0.0116.
The same measure for RRIRIRPPRLPRPRPRPRIKPRP: -0.466; for RRIRVRPPRLPRPRPRPEGYPRP: -0.0123; for RRIRKRPPRLPRPRPRPNMYPRP: -0.14.
The result for RRIRDRPPRLPRPRPRPYMNPRP reads -0.665; that for RRIRCRPPRLPRPRPRPWVGPRP, -0.167; that for RRIRHRPPRLPRPRPRPDFAPRP, -1.07.
The same measure for RRIRPRPPRLPRPRPRPNTSPRP: -0.237.
Consider RRIRHRPPRLPRPRPRPSNDPRP, for which the “shrunken log2 fold change” value was -0.849.
The same measure for RRIRYRPPRLPRPRPRPHDRPRP: 0.0039; for RRIRDRPPRLPRPRPRPNMQPRP: -0.339; for RRIRHRPPRLPRPRPRPVGEPRP: 0.053.
The same measure for RRIRFRPPRLPRPRPRPWQRPRP: -0.0586.
RRIRIRPPRLPRPRPRPFRMPRP: the “shrunken log2 fold change” value was -0.91.
The result for RRIRERPPRLPRPRPRPIMQPRP reads -0.164; that for RRIRYRPPRLPRPRPRPGCEPRP, 0.0164.
The result for RRIRRRPPRLPRPRPRPKCVPRP reads -0.29.
As to RRIRFRPPRLPRPRPRPKKEPRP, the “shrunken log2 fold change” value was 0.0316.
On to RRIRMRPPRLPRPRPRPTAWPRP, for which the “shrunken log2 fold change” value came out at 1.4.
The result for RRIRSRPPRLPRPRPRPIIDPRP reads -0.178; that for RRIRTRPPRLPRPRPRPQKMPRP, 0.176; that for RRIRIRPPRLPRPRPRPFSMPRP, -0.0858.
The result for RRIRARPPRLPRPRPRPVFYPRP reads -0.0366.
In the case of RRIRDRPPRLPRPRPRPHCIPRP, the “shrunken log2 fold change” value is -0.00742.
With RRIRIRPPRLPRPRPRPQLNPRP, the “shrunken log2 fold change” value is -0.499.
The result for RRIRCRPPRLPRPRPRPLMLPRP reads -0.646; that for RRIRLRPPRLPRPRPRPTRDPRP, 0.454.
The same measure for RRIRSRPPRLPRPRPRPAWNPRP: 0.467; for RRIRVRPPRLPRPRPRPKELPRP: -0.00952; for RRIRCRPPRLPRPRPRPRETPRP: 0.647.
Take RRIRKRPPRLPRPRPRPYEHPRP: the “shrunken log2 fold change” value worked out at 0.049.
For the sequence RRIRARPPRLPRPRPRPIICPRP, the “shrunken log2 fold change” value was 0.106.
The result for RRIRMRPPRLPRPRPRPVNFPRP reads -0.114.
Take RRIRNRPPRLPRPRPRPLEMPRP: the “shrunken log2 fold change” value is -0.0434.
The same measure for RRIRGRPPRLPRPRPRPQNQPRP: 0.0596; for RRIRTRPPRLPRPRPRPMDSPRP: -0.0716.
As to RRIRCRPPRLPRPRPRPPRNPRP, the “shrunken log2 fold change” value came out at 1.05.
The same measure for RRIRWRPPRLPRPRPRPKHPPRP: 0.442; for RRIRSRPPRLPRPRPRPAAGPRP: 0.585; for RRIRTRPPRLPRPRPRPLCDPRP: -0.714.
The same measure for RRIRERPPRLPRPRPRPREQPRP: -0.0138; for RRIRNRPPRLPRPRPRPVKKPRP: -0.0236; for RRIRLRPPRLPRPRPRPISTPRP: -0.161.
The result for RRIRCRPPRLPRPRPRPLCFPRP reads -0.0241.
Regarding RRIRVRPPRLPRPRPRPRSIPRP, the “shrunken log2 fold change” value was determined as 3.22.
The same measure for RRIRIRPPRLPRPRPRPPISPRP: -0.391.
The result for RRIRERPPRLPRPRPRPKQEPRP reads -0.127; that for RRIRIRPPRLPRPRPRPEDWPRP, 0.0775; that for RRIRKRPPRLPRPRPRPLPVPRP, 0.431.
Take RRIRGRPPRLPRPRPRPCIIPRP: the “shrunken log2 fold change” value was 0.191.
The result for RRIRVRPPRLPRPRPRPMMGPRP reads 0.00748; that for RRIRHRPPRLPRPRPRPPMQPRP, 0.268.
For the sequence RRIRNRPPRLPRPRPRPVQNPRP, the “shrunken log2 fold change” value is -0.0269.
For RRIRMRPPRLPRPRPRPNTWPRP, the “shrunken log2 fold change” value came to 0.454.
Turning to RRIRMRPPRLPRPRPRPEGIPRP, the “shrunken log2 fold change” value was determined as 2.03.
The same measure for RRIRYRPPRLPRPRPRPQCKPRP: -1.34; for RRIRNRPPRLPRPRPRPNCKPRP: -0.424; for RRIRPRPPRLPRPRPRPKQCPRP: 0.147.
With RRIRWRPPRLPRPRPRPLGKPRP, the “shrunken log2 fold change” value was 0.136.
Turning to RRIRLRPPRLPRPRPRPHNHPRP, the “shrunken log2 fold change” value is -0.77.
As for RRIRRRPPRLPRPRPRPWNDPRP, the “shrunken log2 fold change” value is -0.345.
The same measure for RRIRVRPPRLPRPRPRPAYWPRP: -0.000323; for RRIRPRPPRLPRPRPRPPQSPRP: 0.621; for RRIRERPPRLPRPRPRPKEEPRP: -0.000921.
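Also: peptides expressed intracellularly from a pBAD plasmid library in pooled LB shake-flask culture, induced with 0.3% L-arabinose, DNA abundance read by NGS, three biological replicates, DESeq2 with apeglm shrinkage.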
